In paper PMC6555819, “Comprehensive study of nuclear receptor DNA binding provides a revised framework for understanding receptor specificity”:
Residue numbers refer to the chain shown, from its start.

Columns and labels:
[1] = target: VDR:RXRa (Homo sapiens, UniProt P11473;P19793 full;full); experiment: no ligand; PBM; 270 nM : 90 nM RXRa; PBS pH 7.4, 2% milk, 0.02% Triton X-100, 1 mM DTT, BSA, 0.4 mg/ml salmon testes DNA; settings: tags: His kept;His cleaved; copies: 1;1; label: surface-attached array probe
How it was run: (§1)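 The probes on custom Agilent 4×180K protein-binding microarrays were double-stranded, with 34-nt variable regions bearing direct-repeat seeds, single-nucleotide variants, half-site ablations and random human genomic background sequences. Incubation lasted 1 h with ligand-free nuclear receptor dimers in PBS pH 7.4, 2% milk, 0.02% Triton X-100, 1 mM DTT, 0.2 mg/mL BSA and 0.4 mg/ml salmon testes DNA. Antibodies against each partner (one per run) detected bound dimers, and fluorescence scans were regression-normalized. Binding z-scores take the random background probes as reference.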

[2] = target: FXR:RXRa (Homo sapiens, UniProt Q96RI1;P19793 full;full); experiment: as above; settings: tags: His kept;His cleaved; copies: 1;1; label: surface-attached array probe
How it was run: as §1

[3] = target: RARg:RXRa (Homo sapiens, UniProt P13631;P19793 full;full); experiment: as above; settings: tags: His kept;His cleaved; copies: 1;1; label: surface-attached array probe
How it was run: as §1

[4] = target: RARb:RXRa (Homo sapiens, UniProt P10826;P19793 full;full); experiment: as above; settings: tags: His kept;His cleaved; copies: 1;1; label: surface-attached array probe
How it was run: as §1

[5] = target: RXRa (Homo sapiens, UniProt P19793); experiment: no ligand; PBM; 180 nM; PBS pH 7.4, 2% milk, 0.02% Triton X-100, 1 mM DTT, BSA, 0.4 mg/ml salmon testes DNA; settings: tags: His cleaved; chain copies: 2; label: surface-attached array probe
[6] = target: LXRb:RXRa (Homo sapiens, UniProt P55055;P19793 full;full); experiment: no ligand; PBM; 270 nM : 90 nM RXRa; PBS pH 7.4, 2% milk, 0.02% Triton X-100, 1 mM DTT, BSA, 0.4 mg/ml salmon testes DNA; settings: tags: His kept;His cleaved; copies: 1;1; label: surface-attached array probe
How it was run: as §1

VDR:RXRa, sequence (P11473 whole entry, chain 1 of 2): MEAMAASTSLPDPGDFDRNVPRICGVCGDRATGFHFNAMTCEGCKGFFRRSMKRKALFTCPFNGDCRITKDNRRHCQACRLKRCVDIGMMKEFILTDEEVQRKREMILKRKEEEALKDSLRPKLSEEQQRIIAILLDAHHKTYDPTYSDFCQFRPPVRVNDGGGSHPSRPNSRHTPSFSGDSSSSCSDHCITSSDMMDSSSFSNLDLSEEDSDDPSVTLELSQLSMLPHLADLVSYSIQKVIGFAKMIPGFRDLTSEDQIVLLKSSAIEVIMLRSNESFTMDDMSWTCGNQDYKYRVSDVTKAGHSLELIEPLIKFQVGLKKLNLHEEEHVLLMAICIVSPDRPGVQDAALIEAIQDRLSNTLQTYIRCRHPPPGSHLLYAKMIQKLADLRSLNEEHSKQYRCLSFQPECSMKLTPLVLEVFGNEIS
VDR:RXRa, sequence (P19793 whole entry, chain 2 of 2): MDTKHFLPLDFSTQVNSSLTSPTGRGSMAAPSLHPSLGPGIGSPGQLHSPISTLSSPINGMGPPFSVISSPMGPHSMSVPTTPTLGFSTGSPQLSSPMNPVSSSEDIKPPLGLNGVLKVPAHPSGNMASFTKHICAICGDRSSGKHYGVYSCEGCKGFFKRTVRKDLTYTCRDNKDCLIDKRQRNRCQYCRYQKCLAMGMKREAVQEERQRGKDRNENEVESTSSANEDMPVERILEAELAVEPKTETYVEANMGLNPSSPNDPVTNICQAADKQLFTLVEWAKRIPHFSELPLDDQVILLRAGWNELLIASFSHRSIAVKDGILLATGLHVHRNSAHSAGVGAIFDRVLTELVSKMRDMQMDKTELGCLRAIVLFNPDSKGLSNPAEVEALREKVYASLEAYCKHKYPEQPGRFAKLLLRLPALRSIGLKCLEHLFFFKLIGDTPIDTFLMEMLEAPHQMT
LXRb:RXRa, sequence (P55055 whole entry, chain 1 of 2): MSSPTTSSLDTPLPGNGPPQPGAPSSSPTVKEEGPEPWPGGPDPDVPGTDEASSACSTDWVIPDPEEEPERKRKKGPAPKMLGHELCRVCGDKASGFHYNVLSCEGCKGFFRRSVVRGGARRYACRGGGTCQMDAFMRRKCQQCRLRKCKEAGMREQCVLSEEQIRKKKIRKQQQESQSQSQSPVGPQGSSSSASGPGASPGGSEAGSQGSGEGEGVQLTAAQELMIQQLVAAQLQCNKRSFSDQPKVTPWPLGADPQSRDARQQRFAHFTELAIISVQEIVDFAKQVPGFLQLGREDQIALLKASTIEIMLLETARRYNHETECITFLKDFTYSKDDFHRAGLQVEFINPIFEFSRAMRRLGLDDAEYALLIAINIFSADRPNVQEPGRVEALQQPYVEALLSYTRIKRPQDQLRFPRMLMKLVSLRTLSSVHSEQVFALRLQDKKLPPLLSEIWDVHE
LXRb:RXRa, sequence (P19793 whole entry, chain 2 of 2): as the sequence (P19793 whole entry, chain 2 of 2) above
RXRa, sequence (P19793 whole entry): as the sequence (P19793 whole entry, chain 2 of 2) above
FXR:RXRa, sequence (Q96RI1 whole entry, chain 1 of 2): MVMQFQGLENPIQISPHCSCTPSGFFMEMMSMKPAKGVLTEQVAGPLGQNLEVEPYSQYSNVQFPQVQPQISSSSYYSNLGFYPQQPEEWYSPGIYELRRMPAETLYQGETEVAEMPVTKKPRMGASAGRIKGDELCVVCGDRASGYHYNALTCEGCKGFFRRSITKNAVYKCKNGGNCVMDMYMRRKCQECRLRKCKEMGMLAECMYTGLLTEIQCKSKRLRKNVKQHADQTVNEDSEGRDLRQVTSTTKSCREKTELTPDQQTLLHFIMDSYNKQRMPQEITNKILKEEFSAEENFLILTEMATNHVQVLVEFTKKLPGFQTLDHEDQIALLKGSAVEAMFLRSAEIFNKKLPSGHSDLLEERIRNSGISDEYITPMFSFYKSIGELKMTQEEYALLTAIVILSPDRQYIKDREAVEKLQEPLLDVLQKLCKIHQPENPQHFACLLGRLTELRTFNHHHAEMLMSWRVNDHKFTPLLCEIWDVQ
FXR:RXRa, sequence (P19793 whole entry, chain 2 of 2): as the sequence (P19793 whole entry, chain 2 of 2) above
RARb:RXRa, sequence (P10826 whole entry, chain 1 of 2): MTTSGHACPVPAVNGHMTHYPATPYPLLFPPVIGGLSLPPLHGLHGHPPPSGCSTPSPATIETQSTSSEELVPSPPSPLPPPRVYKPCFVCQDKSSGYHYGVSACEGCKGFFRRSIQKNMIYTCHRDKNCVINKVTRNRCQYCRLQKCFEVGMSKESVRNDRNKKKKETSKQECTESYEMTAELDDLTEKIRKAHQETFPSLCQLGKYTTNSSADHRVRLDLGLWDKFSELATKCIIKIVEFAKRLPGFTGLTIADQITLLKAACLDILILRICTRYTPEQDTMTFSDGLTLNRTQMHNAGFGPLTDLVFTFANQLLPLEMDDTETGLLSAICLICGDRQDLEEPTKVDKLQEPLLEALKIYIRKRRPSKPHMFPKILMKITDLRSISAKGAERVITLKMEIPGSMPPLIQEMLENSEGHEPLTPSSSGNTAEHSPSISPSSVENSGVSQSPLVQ
RARb:RXRa, sequence (P19793 whole entry, chain 2 of 2): as the sequence (P19793 whole entry, chain 2 of 2) above
RARg:RXRa, sequence (P13631 whole entry, chain 1 of 2): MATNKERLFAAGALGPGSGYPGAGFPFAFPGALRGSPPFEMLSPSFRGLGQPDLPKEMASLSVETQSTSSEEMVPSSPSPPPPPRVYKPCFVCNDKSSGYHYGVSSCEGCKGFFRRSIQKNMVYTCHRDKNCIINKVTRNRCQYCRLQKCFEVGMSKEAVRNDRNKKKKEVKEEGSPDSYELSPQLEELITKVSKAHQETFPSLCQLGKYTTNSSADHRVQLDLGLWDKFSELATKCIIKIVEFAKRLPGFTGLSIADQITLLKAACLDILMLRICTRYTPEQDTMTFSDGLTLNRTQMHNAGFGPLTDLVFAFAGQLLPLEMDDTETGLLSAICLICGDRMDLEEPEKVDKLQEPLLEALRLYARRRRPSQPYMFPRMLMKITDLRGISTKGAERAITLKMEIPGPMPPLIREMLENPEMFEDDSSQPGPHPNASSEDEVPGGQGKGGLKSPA
RARg:RXRa, sequence (P19793 whole entry, chain 2 of 2): as the sequence (P19793 whole entry, chain 2 of 2) above

B1: NRC3_random_hg19_381_o1 (dsDNA)
DNA 1: GCCATGAGCGTGGAATGTTCTTCCATTTGTTCATATGCGATTGACAGCGTAGAATGAAGG
DNA 2: CCTTCATTCTACGCTGTCAATCGCATATGAACAAATGGAAGAACATTCCACGCTCATGGC
binding signal [1]: -0.43 PBM z-score against 500 random probes
binding signal [2]: -0.07 PBM z-score against 500 random probes
binding signal [3]: -0.62 PBM z-score against 500 random probes
binding signal [4]: -0.87 PBM z-score against 500 random probes

B2: NRC3_random_hg19_27_o1 (dsDNA)
DNA 1: GCTCCCTGCCCAGTTCTGTGCAGGGTGTGCGTGTCTGCGATTGACAGCGTAGAATGAAGG
DNA 2: CCTTCATTCTACGCTGTCAATCGCAGACACGCACACCCTGCACAGAACTGGGCAGGGAGC
binding signal [1]: -0.37 PBM z-score against 500 random probes
binding signal [2]: -0.32 PBM z-score against 500 random probes
binding signal [4]: -0.46 PBM z-score against 500 random probes

B3: NRC3_random_hg19_209_o1 (dsDNA)
DNA 1: GCGAGTTTCCAGCAGATGGCCATCACAACAATACTGGCGATTGACAGCGTAGAATGAAGG
DNA 2: CCTTCATTCTACGCTGTCAATCGCCAGTATTGTTGTGATGGCCATCTGCTGGAAACTCGC
binding signal [5]: -0.14 PBM z-score against 500 random probes
binding signal [1]: -0.22 PBM z-score against 500 random probes
binding signal [2]: -0.37 PBM z-score against 500 random probes

B4: NRC3_random_hg19_171_o1 (dsDNA)
DNA 1: GCGGGCTACTGCCTAGGGTGCCTTGGCACAGCCAGCGCGATTGACAGCGTAGAATGAAGG
DNA 2: CCTTCATTCTACGCTGTCAATCGCGCTGGCTGTGCCAAGGCACCCTAGGCAGTAGCCCGC
binding signal [5]: -0.92 PBM z-score against 500 random probes
binding signal [1]: -0.96 PBM z-score against 500 random probes
binding signal [2]: -2.74 PBM z-score against 500 random probes
binding signal [4]: -0.98 PBM z-score against 500 random probes

B5: NRC3_wobSeed124_DR5_o1 (dsDNA)
DNA 1: GCCCTACTGGGCCATTCAGAGGTCATTGATCATATGGCGATTGACAGCGTAGAATGAAGG
DNA 2: CCTTCATTCTACGCTGTCAATCGCCATATGATCAATGACCTCTGAATGGCCCAGTAGGGC
binding signal [1]: 3.94 PBM z-score against 500 random probes
binding signal [4]: 3.04 PBM z-score against 500 random probes

B6: NRC3_random_hg19_418_o1 (dsDNA)
DNA 1: GCTGTGAGCATCACTTCTTGTTGGTCAGAGTAAGAGGCGATTGACAGCGTAGAATGAAGG
DNA 2: CCTTCATTCTACGCTGTCAATCGCCTCTTACTCTGACCAACAAGAAGTGATGCTCACAGC
binding signal [1]: -0.69 PBM z-score against 500 random probes
binding signal [4]: -0.39 PBM z-score against 500 random probes

B7: NRC3_random_hg19_309_o1 (dsDNA)
DNA 1: GCCTTAGCTGGGATCTTATCTGTACAGTATCTGGGAGCGATTGACAGCGTAGAATGAAGG
DNA 2: CCTTCATTCTACGCTGTCAATCGCTCCCAGATACTGTACAGATAAGATCCCAGCTAAGGC
binding signal [5]: -0.37 PBM z-score against 500 random probes
binding signal [1]: -0.57 PBM z-score against 500 random probes
binding signal [3]: -0.47 PBM z-score against 500 random probes
binding signal [4]: -0.66 PBM z-score against 500 random probes

B8: NRC3_wobSeed77_DR3_C8A_o1 (dsDNA)
DNA 1: GCACTTAAGGGTCAACGAGGTTATAGCACGCGTATAGCGATTGACAGCGTAGAATGAAGG
DNA 2: CCTTCATTCTACGCTGTCAATCGCTATACGCGTGCTATAACCTCGTTGACCCTTAAGTGC
binding signal [1]: 8.17 PBM z-score against 500 random probes
binding signal [2]: 7.94 PBM z-score against 500 random probes

B9: NRC3_wobSeed50_DR2_T20C_o1 (dsDNA)
DNA 1: GCCCTAGTTGGTCAGGAGGCCACACACCGGATATGAGCGATTGACAGCGTAGAATGAAGG
DNA 2: CCTTCATTCTACGCTGTCAATCGCTCATATCCGGTGTGTGGCCTCCTGACCAACTAGGGC
binding signal [5]: 0.4 PBM z-score against 500 random probes
binding signal [1]: 0.33 PBM z-score against 500 random probes

B10: NRC3_random_hg19_54_o1 (dsDNA)
DNA 1: GCAGGTAATGTATTCACAGGTTCTGGGACGTCATTGGCGATTGACAGCGTAGAATGAAGG
DNA 2: CCTTCATTCTACGCTGTCAATCGCCAATGACGTCCCAGAACCTGTGAATACATTACCTGC
binding signal [5]: -0.06 PBM z-score against 500 random probes
binding signal [1]: -0.18 PBM z-score against 500 random probes
binding signal [3]: -0.18 PBM z-score against 500 random probes

B11: NRC3_random_hg19_130_o1 (dsDNA)
DNA 1: GCGAGATCAAGACCATCCTGGCTAACATGGTGAAACGCGATTGACAGCGTAGAATGAAGG
DNA 2: CCTTCATTCTACGCTGTCAATCGCGTTTCACCATGTTAGCCAGGATGGTCTTGATCTCGC
binding signal [5]: -0.18 PBM z-score against 500 random probes
binding signal [1]: -0.35 PBM z-score against 500 random probes

B12: NRC3_wobSeed25_DR1_A5C_o1 (dsDNA)
DNA 1: GCCACACTAGGTCAAAGGTCAAAGTCGAGCCAACCAGCGATTGACAGCGTAGAATGAAGG
DNA 2: CCTTCATTCTACGCTGTCAATCGCTGGTTGGCTCGACTTTGACCTTTGACCTAGTGTGGC
binding signal [6]: 7.56 PBM z-score against 500 random probes

B13: NRC3_wobSeed89_DR3_A15G_o1 (dsDNA)
DNA 1: GCCTATGTAGGTTAGGGGGGTCATTCAGTTTGAAAGGCGATTGACAGCGTAGAATGAAGG
DNA 2: CCTTCATTCTACGCTGTCAATCGCCTTTCAAACTGAATGACCCCCCTAACCTACATAGGC
binding signal [6]: 7.36 PBM z-score against 500 random probes

B14: NRC3_wobSeed120_DR4_G7A_o1 (dsDNA)
DNA 1: GCCCGAATAGGTTACGAGGGGGCATTCAGTGCGAATGCGATTGACAGCGTAGAATGAAGG
DNA 2: CCTTCATTCTACGCTGTCAATCGCATTCGCACTGAATGCCCCCTCGTAACCTATTCGGGC
binding signal [6]: 7.24 PBM z-score against 500 random probes

B15: NRC3_wobSeed89_DR3_A15C_o1 (dsDNA)
DNA 1: B13 DNA 1 with G15C
DNA 2: B13 DNA 2 with C46G
binding signal [6]: 6.78 PBM z-score against 500 random probes

B16: NRC3_wobSeed89_DR3_A9G_o1 (dsDNA)
DNA 1: B13 DNA 1 with A9G, G15A
DNA 2: B13 DNA 2 with C46T, T52C
binding signal [6]: 6.72 PBM z-score against 500 random probes

B17: NRC3_wobSeed74_DR3_A18G_o1 (dsDNA)
DNA 1: GCTCTAGTTGGTCACGGGGGTCACACACGACGGGTAGCGATTGACAGCGTAGAATGAAGG
DNA 2: CCTTCATTCTACGCTGTCAATCGCTACCCGTCGTGTGTGACCCCCGTGACCAACTAGAGC
binding signal [6]: 6.39 PBM z-score against 500 random probes

B18: NRC3_wobSeed72_DR2_T13C_o1 (dsDNA)
DNA 1: GCTCGAGTAGGTCACGGGGGCATTCAGGGATGAAGAGCGATTGACAGCGTAGAATGAAGG
DNA 2: CCTTCATTCTACGCTGTCAATCGCTCTTCATCCCTGAATGCCCCCGTGACCTACTCGAGC
binding signal [6]: 6.37 PBM z-score against 500 random probes

B19: NRC3_wobSeed17_DR0_A14G_o1 (dsDNA)
DNA 1: GCATATGTAGGTTGGGGTCATTCAGAAAGTAGGGAAGCGATTGACAGCGTAGAATGAAGG
DNA 2: CCTTCATTCTACGCTGTCAATCGCTTCCCTACTTTCTGAATGACCCCAACCTACATATGC
binding signal [6]: 6.29 PBM z-score against 500 random probes

B20: NRC3_wobSeed26_DR1_C22A_o1 (dsDNA)
DNA 1: GCTCTAGTTGGTCAAAGGTCAAACACTCGAAATGCGGCGATTGACAGCGTAGAATGAAGG
DNA 2: CCTTCATTCTACGCTGTCAATCGCCGCATTTCGAGTGTTTGACCTTTGACCAACTAGAGC
binding signal [6]: 6.26 PBM z-score against 500 random probes

B21: NRC3_wobSeed113_DR4_T17G_o1 (dsDNA)
DNA 1: GCATATGTAGGTTAGCGGGGGTCATTCAGACTAGGCGCGATTGACAGCGTAGAATGAAGG
DNA 2: CCTTCATTCTACGCTGTCAATCGCGCCTAGTCTGAATGACCCCCGCTAACCTACATATGC
binding signal [6]: 6.23 PBM z-score against 500 random probes

B22: NRC3_wobSeed49_DR2_C7A_o1 (dsDNA)
DNA 1: GCCAAAATAGGTCAAGAGGTCAAAGTCCGCTTCCCGGCGATTGACAGCGTAGAATGAAGG
DNA 2: CCTTCATTCTACGCTGTCAATCGCCGGGAAGCGGACTTTGACCTCTTGACCTATTTTGGC
binding signal [6]: 6.19 PBM z-score against 500 random probes

B23: NRC3_wobSeed72_DR2_A6T_o1 (dsDNA)
DNA 1: B18 DNA 1 with A6T, C13T
DNA 2: B18 DNA 2 with G48A, T55A
binding signal [6]: 6.12 PBM z-score against 500 random probes

B24: NRC3_wobSeed50_DR2_A17G_o1 (dsDNA)
DNA 1: B9 DNA 1 with A17G, C20T
DNA 2: B9 DNA 2 with G41A, T44C
binding signal [6]: 6.04 PBM z-score against 500 random probes

B25: NRC3_wobSeed27_DR1_A9G_o1 (dsDNA)
DNA 1: GCACTCGGGGGACAAAGGTCAGAGCTACGCCAGTGAGCGATTGACAGCGTAGAATGAAGG
DNA 2: CCTTCATTCTACGCTGTCAATCGCTCACTGGCGTAGCTCTGACCTTTGTCCCCCGAGTGC
binding signal [6]: 5.84 PBM z-score against 500 random probes

B26: NRC3_wobSeed124_DR5_C17A_o1 (dsDNA)
DNA 1: B5 DNA 1 with C17A
DNA 2: B5 DNA 2 with G44T
binding signal [6]: 3.9 PBM z-score against 500 random probes

B27: NRC3_wobSeed124_DR5_T15C_o1 (dsDNA)
DNA 1: B5 DNA 1 with T15C
DNA 2: B5 DNA 2 with A46G
binding signal [6]: 3.89 PBM z-score against 500 random probes
